# Measurements as given in patent US20220142994A1, “Beta-Carboline Compounds And Use Thereof For The Non-Cytotoxic And Immunological Treatment Of Cancer” (AC BIOSCIENCE SA, priority 2019, published 2022).
# Key:
# [1] = system: PD-L1 on melanoma B16 cells; test: PD-L1 expression level by flow cytometry; assay type: cell-based, murine; conditions: 5 μM harmine or 50 μg/ml interferon, 24 hours
# Protocol: Melanoma B16 cells were treated by 5 μM harmine or 50 μg/ml interferon for 24 hours. PD-L1 level was assessed by flow cytometry using the FMI mode.
# This can be considered as a favourable property because PD-L1 overexpression in tumour cells is constantly associated with poorer overall survival in cancer patients.
# [2] = system: L929 cells; conditions: cited from earlier work
molecule,measurement,setting,value
"interferon gamma: interferon gamma, known to increase the MHC I density at the cell membrane; positive control (protein, UniProt P01580 23-155, looked up) Interferon gamma: HGTVIESLESLNNYFNSSGIDVEEKSLFLDIWRNWQKDGDMKILQSQIISFYLRLFEVLKDNQAISNNISVIESHLITTFFSNSKAKKDAFMSIAKFEVNNPQVQRQAFNELIRVVHQLLPESSLRKRKRSRC",PD-L1 expression at the membrane,[1],huge effect
same,fluorescent intensity (MHC class I and actin staining),[2]; IFN-γ pre-treated cells compared to cells only,more fluorescent intensity
same,actin density,[2],significant increase of actin density
